Measurements taken from paper PMC3465527.

T1: Mss116p MBP-D1 (Saccharomyces cerevisiae? (paper: yeast), UniProt P15424 88-330)
T1 sequence: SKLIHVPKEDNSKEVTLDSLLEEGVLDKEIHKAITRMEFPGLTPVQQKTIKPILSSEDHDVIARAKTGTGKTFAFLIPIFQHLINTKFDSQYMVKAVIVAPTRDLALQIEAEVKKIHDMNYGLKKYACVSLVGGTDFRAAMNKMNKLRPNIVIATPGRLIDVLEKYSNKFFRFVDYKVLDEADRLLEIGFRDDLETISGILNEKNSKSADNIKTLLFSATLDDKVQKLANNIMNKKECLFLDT

T2: Mss116p D2 (with CTE) (Saccharomyces cerevisiae? (paper: yeast), UniProt P15424 342-597)
T2 sequence: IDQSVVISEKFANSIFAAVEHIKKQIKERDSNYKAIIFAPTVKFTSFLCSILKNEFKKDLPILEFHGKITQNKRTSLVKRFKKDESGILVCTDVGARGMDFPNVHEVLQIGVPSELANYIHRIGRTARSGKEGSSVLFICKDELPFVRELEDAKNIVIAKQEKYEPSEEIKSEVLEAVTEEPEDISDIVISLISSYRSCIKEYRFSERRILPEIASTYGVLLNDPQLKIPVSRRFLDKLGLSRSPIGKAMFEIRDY

B1: FAM-dsRNA 14-bp (dsRNA)
RNA 1: GGGCGGGCCCGCCC
RNA 2: GGGCGGGCCCGCCC
B2: chimeric RNA-DNA duplex 14-bp (mixed)
? 1: GGGCGGGCCCGCCC
? 2: GGGCGGGCCCGCCC
modifications: each strand rGrGrGrCrGrGrGdCdCdCdGdCdCdC: nt 1-7 RNA, nt 8-14 DNA

Columns and labels:
Mss116p MBP-D1 = biological target: T1, Mss116p MBP-D1; assay: EMSA
Mss116p D2 (with CTE) = biological target: T2, Mss116p D2 (with CTE); assay: X-ray crystallography

Binder	binding result (Mss116p MBP-D1)	binding result (Mss116p D2 (with CTE))
B1	no binding	
B2		binds
